The results in this text go back to paper PMC7949082, “Mutant BIN1-Dynamin 2 complexes dysregulate membrane remodeling in the pathogenesis of centronuclear myopathy” (The Journal of Biological Chemistry, 2020).

The series deals with the molecule itself. The experiment in a line: electron microscopy; purified dynamin 2 on lipid nanotubes, in the absence of GTP.

B1: purified recombinant wild-type human dynamin 2 (His-tagged) (enzyme, UniProt P50570-1 1-870, looked up)
chain: MGNRGMEELIPLVNKLQDAFSSIGQSCHLDLPQIAVVGGQSAGKSSVLENFVGRDFLPRGSGIVTRRPLILQLIFSKTEHAEFLHCKSKKFTDFDEVRQEIEAETDRVTGTNKGISPVPINLRVYSPHVLNLTLIDLPGITKVPVGDQPPDIEYQIKDMILQFISRESSLILAVTPANMDLANSDALKLAKEVDPQGLRTIGVITKLDLMDEGTDARDVLENKLLPLRRGYIGVVNRSQKDIEGKKDIRAALAAERKFFLSHPAYRHMADRMGTPHLQKTLNQQLTNHIRESLPALRSKLQSQLLSLEKEVEEYKNFRPDDPTRKTKALLQMVQQFGVDFEKRIEGSGDQVDTLELSGGARINRIFHERFPFELVKMEFDEKDLRREISYAIKNIHGVRTGLFTPDLAFEAIVKKQVVKLKEPCLKCVDLVIQELINTVRQCTSKLSSYPRLREETERIVTTYIREREGRTKDQILLLIDIEQSYINTNHEDFIGFANAQQRSTQLNKKRAIPNQGEILVIRRGWLTINNISLMKGGSKEYWFVLTAESLSWYKDEEEKEKKYMLPLDNLKIRDVEKGFMSNKHVFAIFNTEQRNVYKDLRQIELACDSQEDVDSWKASFLRAGVYPEKDQAENEDGAQENTFSMDPQLERQVETIRNLVDSYVAIINKSIRDLMPKTIMHLMINNTKAFIHHELLAYLYSSADQSSLMEESADQAQRRDDMLRMYHALKEALNIIGDISTSTVSTPVPPPVDDTWLQSASSHSPTPQRRPVSSIHPPGRPPAVRGPTPGPPLIPVPVGAAASFSAPPIPSRPGPQSVFANSDLFPAPPQIPSRPVRIPPGIPPGVPSRRPPAAPSRPTIIRPAEPSLLD
notes: human dynamin 2 (NM_001005360), wild type, from the same Entry clone as the mammalian constructs; The vector is named pET15b in one paragraph and pET23b in another; no removal of the His tag is told; also called Dynamin 2 WT; DNM2WT
As to B1, the binding result is “binds”.
